What was measured:
Assay in all cases: cell-based or functional assay
[1] = biological target: recombinant Mfa1 protein (rMfa1), full-length Mfa1 of P. gingivalis 33277 with a C-terminal penta-histidine tag (Porphyromonas gingivalis) (UniProt B2RHG1)
[2] = biological target: minor fimbrial antigen Mfa1 of Porphyromonas gingivalis, on intact P. gingivalis ATCC 33277 cells (Porphyromonas gingivalis) (UniProt B2RHG1)
[3] = biological target: T1, minor fimbrial antigen Mfa1 of Porphyromonas gingivalis, on intact P. gingivalis ATCC 33277 cells (Porphyromonas gingivalis, UniProt B2RHG1 50-563)
T1 sequence: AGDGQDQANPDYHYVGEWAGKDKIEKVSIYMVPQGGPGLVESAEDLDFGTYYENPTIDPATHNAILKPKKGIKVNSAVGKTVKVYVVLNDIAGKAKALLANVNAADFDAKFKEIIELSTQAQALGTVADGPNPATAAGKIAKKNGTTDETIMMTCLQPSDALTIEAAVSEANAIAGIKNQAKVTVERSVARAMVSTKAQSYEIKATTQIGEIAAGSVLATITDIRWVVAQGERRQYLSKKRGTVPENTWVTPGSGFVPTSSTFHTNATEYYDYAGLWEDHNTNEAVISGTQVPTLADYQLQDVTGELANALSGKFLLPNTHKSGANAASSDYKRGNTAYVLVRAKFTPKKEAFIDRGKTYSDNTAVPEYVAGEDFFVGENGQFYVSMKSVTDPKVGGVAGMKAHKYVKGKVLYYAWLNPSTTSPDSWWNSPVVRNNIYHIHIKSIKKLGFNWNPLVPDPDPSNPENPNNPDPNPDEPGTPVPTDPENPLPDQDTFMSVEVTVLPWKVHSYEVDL

Sequence of recombinant Mfa1 protein (rMfa1), full-length Mfa1 of P. gingivalis 33277 with a C-terminal penta-histidine tag (Porphyromonas gingivalis) (B2RHG1 20-563, tags left off): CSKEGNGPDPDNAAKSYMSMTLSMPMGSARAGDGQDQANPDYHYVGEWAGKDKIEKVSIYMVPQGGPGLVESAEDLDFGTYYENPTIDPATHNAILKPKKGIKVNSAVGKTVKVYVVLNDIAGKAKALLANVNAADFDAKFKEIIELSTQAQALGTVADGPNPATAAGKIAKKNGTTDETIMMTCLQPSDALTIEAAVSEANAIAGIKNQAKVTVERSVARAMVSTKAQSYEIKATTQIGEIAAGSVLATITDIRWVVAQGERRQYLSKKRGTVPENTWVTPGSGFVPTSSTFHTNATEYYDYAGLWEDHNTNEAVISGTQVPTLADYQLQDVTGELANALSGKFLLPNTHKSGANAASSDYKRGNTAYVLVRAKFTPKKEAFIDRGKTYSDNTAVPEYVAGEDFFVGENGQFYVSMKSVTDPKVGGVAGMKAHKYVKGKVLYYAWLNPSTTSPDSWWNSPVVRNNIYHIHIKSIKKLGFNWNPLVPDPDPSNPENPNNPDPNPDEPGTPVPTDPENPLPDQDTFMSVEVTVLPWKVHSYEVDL

Molecule: BAR peptide (SspB Adherence Region), synthetic peptide comprising residues 1167 to 1193 of the SspB (antigen I/II) protein of S. gordonii
- relative density (R.D.) of remaining BAR peptide after 5 minutes with P. gingivalis SMF1 and rMfa1 (relative density) [1]: 47.3
- relative density (R.D.) of remaining BAR peptide after 30 minutes with P. gingivalis SMF1 and rMfa1 (relative density) [1]: 8.2

Molecule: BAR-II, derivative of the BAR peptide containing the Arg/Asn1182 and Ile/Val1185 substitutions
- I50 of inhibition of P. gingivalis adherence and biofilm formation [2]: 0.52 µM
- fold difference of I50 against BAR [2]: 2.5 fold
- inhibition of adherence and formation of P. gingivalis microcolonies on the streptococcal substrate at 0.34 µM peptide [2]: 25%
- inhibition of adherence and formation of P. gingivalis microcolonies on the streptococcal substrate at 0.85 µM peptide [2]: 82%

Molecule: BAR-III, cyclic conformationally constrained disulfide bridged BAR peptide with Cys substituted for Leu1177 and Leu1191
- specific activity of biofilm inhibition against BAR (fold less than BAR) [2]: 13

Molecule: BAR-X, BAR analog in which the internal variable residues in VXXLL were altered to Pro and Gly (VPGLL) (peptide)
- inhibition of biofilm formation at 3.38 µM peptide [2]: 15%

Molecule: BAR-XI, BAR analog in which the positively charged Lys residues flanking VXXLL were altered to Asp (peptide)
- inhibition of biofilm formation [2]: 40%

B1: BAR peptide (SspB Adherence Region), synthetic peptide comprising residues 1167 to 1193 of the SspB (antigen I/II) protein of S. gordonii (peptide)
peptide: LEAAPKKVQDLLKKANITVKGAFQLFS
- % inhibition of microcolony formation relative to 0 µM, 0.169 µM BAR, with pepstatin A [3]: 19.9%
- % inhibition of microcolony formation relative to 0 µM, 0.169 µM BAR, without pepstatin A [3]: 4.99%
- % inhibition of microcolony formation relative to 0 µM, 0.338 µM BAR, with pepstatin A [3]: 44.6%
- % inhibition of microcolony formation relative to 0 µM, 0.338 µM BAR, without pepstatin A [3]: 18.6%
- % inhibition of microcolony formation relative to 0 µM, 0.845 µM BAR, with pepstatin A [3]: 67.7%
- % inhibition of microcolony formation relative to 0 µM, 0.845 µM BAR, without pepstatin A [3]: 42.5%
- % inhibition of microcolony formation relative to 0 µM, 1.65 µM BAR, with pepstatin A [3]: 97.8%
- % inhibition of microcolony formation relative to 0 µM, 1.65 µM BAR, without pepstatin A [3]: 93.4%

Reference: patent publication US20090214603A1 (UNIVERSITY OF LOUISVILLE RESEARCH FOUNDATION, published 2009)
